Changes are numbered by the printed parent chain. Numbers in names are those of the source.
Key:
Conditions in all cases: other: pH 7, 37° C., 0.25 mM NADH
[1] = substrate: O=C(O)C(=O)CCO; assay: OHB/pyruvate reductase assay, Ec-LdhA; assay type: biochemical, Escherichia coli
Description: (§1) The genes coding for (L)-malate dehydrogenase in Escherichia coli, Ec-mdh (SEQ ID NO: 1), (D)-lactate dehydrogenase in E. coli, Ec-ldhA (SEQ ID NO: 3), (L)-lactate dehydrogenase of Lactococcus lactis, Ll-ldhA (SEQ ID NO: 5), (L)-lactate dehydrogenase of Bacillus subtilis, Bs-ldh (SEQ ID NO: 7), (L)-lactate dehydrogenase of Geobacillus stearothermophilus, Gs-ldh (SEQ ID NO: 9), the two isoforms of the (L)-lactate dehydrogenase of Oryctalagus cuniculus, Oc-ldhA (SEQ ID NO: 11 and SEQ ID NO: 13), were amplified by PCR using the high-fidelity polymerase Phusion™ (Fermentas) and the primers listed in Table 1. Genomic DNAs of E. coli MG1655, L. lactis IL1403, and B. subtilis strain 168 were used as the template. The genes Oc-ldhA, and Gs-ldh were codon-optimized for expression in E. coli and synthesized by MWG Eurofins. The primers introduced restriction sites (Table 1) upstream of the start codon and downstream of the stop codon, respectively, facilitating the ligation of the digested PCR products into the corresponding sites of the pET28a+ (Novagen) expression vector using T4 DNA ligase (Fermentas). Ligation products were transformed into E. coli DH5a cells (NEB). […]

[2] = substrate: CC(=O)C(=O)O; assay: OHB/pyruvate reductase assay, Ec-LdhA; assay type: biochemical, Escherichia coli
Description: as §1

[3] = substrate: CC(=O)C(=O)O; assay: OHB/pyruvate reductase assay, Ll-Ldh wild type; assay type: biochemical, Lactococcus lactis
Description: as §1

[4] = substrate: O=C(O)C(=O)CCO; assay: OHB/pyruvate reductase assay, Ll-LdhA Q85N; assay type: biochemical, Lactococcus lactis
Method: (§2) Enzymatic assays: The reaction mixture contained 60 mM Hepes (pH 7), 50 mM potassium chloride, 5 mM MgCl2, 0.25 mM NADH, (optionally 5 mM fructose-1,6-bisphosphate) (all products from Sigma), and appropriate amounts of purified malate or lactate dehydrogenase or cell extract. Reactions were started by adding appropriate amounts of 2-oxo-4-hydroxybutyrate (OHB), pyruvate, or oxaloacetate (OAA). Enzymatic assays were carried out at 37° C. in 96-well flat bottomed microtiter plates in a final volume of 250 μL. The reactions were followed by the characteristic absorption of NADH at 340 nm (εNADH=6.22 mM^−1 cm^−1) in a microplate reader (BioRad 680XR).
(§3) Site-directed mutagenesis of the L. lactis ldhA gene was carried out using the pET28-Ll-ldhA plasmid as the template. Point mutations to change the amino acid sequence were introduced by PCR (Phusion 1U, HF buffer 20% (v/v), dNTPs 0.2 mM, direct and reverse primers 0.04 μM each, template plasmid 30-50 ng, water) using the oligonucleotide pairs listed in Table 3. The genes mutated by PCR contained a new restriction site listed in Table 3 (introduced using silent mutations) in addition to the functional mutation to facilitate identification of mutated clones. The PCR products were digested by DpnI at 37° C. for 1 h to remove template DNA, and transformed into competent E. coli DH5α (NEB) cells. […]

[5] = substrate: CC(=O)C(=O)O; assay: OHB/pyruvate reductase assay, Ll-LdhA Q85N; assay type: biochemical, Lactococcus lactis
Method: as §2, §3

[6] = substrate: O=C(O)C(=O)CCO; assay: OHB/pyruvate reductase assay, Ll-LdhA Q85N I226V; assay type: biochemical, Lactococcus lactis
Method: as §2, §3

[7] = substrate: CC(=O)C(=O)O; assay: OHB/pyruvate reductase assay, Ll-LdhA Q85N I226V; assay type: biochemical, Lactococcus lactis
Method: as §2, §3

[8] = substrate: O=C(O)CC(=O)C(=O)O; assay: OHB/oxaloacetate reductase assay (NADH oxidation at 340 nm), Ec-Mdh wild type; assay type: biochemical, Escherichia coli
Description: as §1

[9] = substrate: O=C(O)C(=O)CCO; assay: OHB/oxaloacetate reductase assay, Ec-Mdh R81A M85Q I12V; assay type: biochemical, Escherichia coli
Method: as §2
Site-directed mutagenesis of the mdh gene from E. coli was carried out as described in Example 2 using the primers listed in Table 5. Plasmid pET28-Ec-mdh was used as the template.
Mutant enzymes were expressed, purified and tested for OHB and oxaloacetate reductase activity as described in Example 1. […] The mutation R81A in Ec-Mdh was combined with additional changes in the protein sequence.

[10] = substrate: O=C(O)C(=O)CCO; assay: OHB/pyruvate reductase assay, Gs-Ldh; assay type: biochemical, Geobacillus stearothermophilus
Description: as §1

[11] = substrate: CC(=O)C(=O)O; assay: OHB/pyruvate reductase assay, Gs-Ldh; assay type: biochemical, Geobacillus stearothermophilus
Description: as §1

B1: Escherichia coli (D)-lactate dehydrogenase Ec-LdhA, SEQ ID NO: 4 (Escherichia coli K-12) (protein)
chain: MKLAVYSTKQYDKKYLQQVNESFGFELEFFDFLLTEKTAKTANGCEAVCIFVNDDGSRPVLEELKKHGVKYIALRCAGFNNVDLDAAKELGLKVVRVPAYDPEAVAEHAIGMMMTLNRRIHRAYQRTRDANFSLEGLTGFTMYGKTAGVIGTGKIGVAMLRILKGFGMRLLAFDPYPSAAALELGVEYVDLPTLFSESDVISLHCPLTPENYHLLNEAAFEQMKNGVMIVNTSRGALIDSQAAIEALKNQKIGSLGMDVYENERDLFFEDKSNDVIQDDVFRRLSACHNVLFTGHQAFLTAEALTSISQTTLQNLSNLEKGETCPNELV
notes: made in house; host or cells: E. coli BL21 (DE3) star
[1]
  Km: 4800 µM
[2]
  Km: 1800 µM

B2: Lactococcus lactis (L)-lactate dehydrogenase Ll-LdhA (Ll-Ldh), wild type, SEQ ID NO: 6 (Lactococcus lactis subsp. lactis Il1403) (protein)
chain: MADKQRKKVILVGDGAVGSSYAFALVNQGIAQELGIVDLFKEKTQGDAEDLSHALAFTSPKKIYSADYSDASDADLVVLTSGAPQKPGETRLDLVEKNLRITKDVVTKIVASGFKGIFLVAANPVDILTYATWKFSGFPKNRVVGSGTSLDTARFRQALAEKVDVDARSIHAYIMGEHGDSEFAVWSHANVAGVKLEQWFQENDYLNEAEIVELFESVRDAAYSIIAKKGATFYGVAVALARITKAILDDEHAVLPVSVFQDGQYGVSDCYLGQPAVVGAEGVVNPIHIPLNDAEMQKMEASGAQLKAIIDEAFAKEEFASAVKN
[3]
  Km: 2700 µM

B3: Lactococcus lactis (L)-lactate dehydrogenase A Ll-LdhA variant Q85N, SEQ ID No. 30 (Lactococcus lactis subsp. lactis Il1403; Q85N) (protein)
chain: B2 chain with Q85N
[4]
  Km: 29200 µM
[5]
  Km: 22100 µM

B4: Lactococcus lactis (L)-lactate dehydrogenase A Ll-LdhA variant Q85N I226V (Q85NI226V), SEQ ID No. 32 (Lactococcus lactis subsp. lactis Il1403; I226V/Q85N) (protein)
chain: B2 chain with Q85N, I226V
[6]
  Km: 3300 µM
[7]
  Km: 1400 µM

B5: Escherichia coli (L)-malate dehydrogenase Ec-Mdh, wild type, SEQ ID NO: 2 (Escherichia coli K-12) (protein)
chain: MKVAVLGAAGGIGQALALLLKTQLPSGSELSLYDIAPVTPGVAVDLSHIPTAVKIKGFSGEDATPALEGADVVLISAGVARKPGMDRSDLFNVNAGIVKNLVQQVAKTCPKACIGIITNPVNTTVAIAAEVLKKAGVYDKNKLFGVTTLDIIRSNTFVAELKGKQPGEVEVPVIGGHSGVTILPLLSQVPGVSFTEQEVADLTKRIQNAGTEVVEAKAGGGSATLSMGQAAARFGLSLVRALQGEQGVVECAYVEGDGQYARFFSQPLLLGKNGVEERKSIGTLSAFEQNALEGMLDTLKKDIALGEEFVNK
notes: as for B1
[8]
  Km: 40 µM

B6: Escherichia coli malate dehydrogenase Ec-Mdh variant R81A M85Q I12V, SEQ ID No. 108 (Escherichia coli K-12; I12V/M85Q/R81A) (protein)
chain: B5 chain with I12V, R81A, M85Q
[9]
  Km: 15000 µM

B7: Geobacillus stearothermophilus (L)-lactate dehydrogenase Gs-Ldh, SEQ ID NO: 10 (Geobacillus stearothermophilus) (protein)
chain: MKNNGGARVVVIGAGFVGASYVFALMNQGIADEIVLIDANESKAIGDAMDFNHGKVFAPKPVDIWHGDYDDCRDADLVVICAGANQKPGETRLDLVDKNIAIFRSIVESVMASGFQGLFLVATNPVDILTYATWKFSGLPHERVIGSGTILDTARFRFLLGEYFSVAPQNVHAYIIGEHGDTELPVWSQAYIGVMPIRKLVESKGEEAQKDLERIFVNVRDAAYQIIEKKGATYYGIAMGLARVTRAILHNENAILTVSAYLDGLYGERDVYIGVPAVINRNGIREVIEIELNDDEKNRFHHSAATLKSVLARAFTR
notes: as for B1
[10]
  Km: 1300 µM
[11]
  Km: 1200 µM
